Data set [1] in a line: folding stability dG unfold (combined trypsin and chymotrypsin); higher = more stable. The gist of the method: (§1)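 Unfolding free energy was derived, per protease or combined, against a sequence-predicted unfolded-state K50 and a shared folded-state K50, starting from K50 inferred by Bayesian fitting of sequencing counts. Digestion with trypsin and chymotrypsin was carried out on designed mini-proteins under 80 residues without cysteine in a PA-tagged cDNA display construct. Only designs with AlphaFold2 dimer inter-PAE above 15 were kept.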

The nature of data set [2]: folding stability dG unfold from chymotrypsin proteolysis; higher = more stable. The gist of the method: as §1
Data set [3] is described as follows: folding stability dG unfold from trypsin proteolysis; higher = more stable. The gist of the method: as §1

± gives the half width of the 95% confidence interval.

“SAGGKVYEFEIEVELLDPETGKPKKIKLKVPVFVDPKTGKVTKKVEAEPEPNVPKEEAEKIAKEIIEAESAG [r14_152_TrMRF]”: the “folding stability dG unfold” value in data set [1] is 1.36 ± 0.31 kcal/mol; in data set [2], 1.71 ± 0.073 kcal/mol; in data set [3] it was -0.04 ± 0.38 kcal/mol.
Regarding “SAGGKYGYKIEIEIAIFRIPPGAEVEPERIGNIEIYRIRFPDGNWLIMIRIKVKPMPPPPPEKKDNDDSAGG [r13_804_TrROS]”, the “folding stability dG unfold” value in data set [1] was 4.22 ± 0.34 kcal/mol; in data set [2] it was 4.7 ± 0.23 kcal/mol; in data set [3] it was 3.61 ± 0.22 kcal/mol.
“SAGGKYKIEIEITEIKEKEDGTKEITIKIKIYDEETGELIYTITVKMRIDKKTNKIIIEEVKIEKLPPSAGG [r13_596_TrROS_Hall]”: the “folding stability dG unfold” value is > 6 kcal/mol in data set [1], 6 ± 0.36 kcal/mol in data set [2] and 4.22 ± 0.29 kcal/mol in data set [3].
Taken in the same sequence, the figures for “SAGGKYKIEIVDVEVKEDGTVTIKLKLYNENGELIAEIEIELKGVKEVTLELEIGGKKIKITLKVEKPSAGG [r13_427_TrROS_Hall]” were 5.36 ± 0.41 kcal/mol, 5.3 ± 0.17 kcal/mol and 4.13 ± 0.36 kcal/mol.
The like results for “SAGGLAEYIARYLQENDPRARVEAEEGDVLDGVRVIRVRVERVDDAFGGDIPSSADFILVIPAGAPPTSAGG [r19_8_TrMRF]” were, in that order, 1.38 ± 0.089 kcal/mol, 1.38 ± 0.1 kcal/mol and 1.36 ± 0.025 kcal/mol.
For “SAGGLDAVLAELAKKPPGVTVELPVELPDGSRVVLTATWPAETSSPVITVKYYDPNRPEAVEEETFTVTSAG [r5_35_JUSTAS]”, the “folding stability dG unfold” value was found to be 1.46 ± 0.12 kcal/mol in data set [1], 1.47 ± 0.049 kcal/mol in data set [2] and 1.34 ± 0.08 kcal/mol in data set [3].
Taken in the same sequence, the figures for “SAGGLIEAIKEAIDQAPPGDEEVTIPIRFPNGTFVIEIRREKDKYKIEIEMQNPNGQKQEITITIEVSAGGS [r16_642_TrROS]” were 1.65 ± 0.12 kcal/mol, 1.69 ± 0.089 kcal/mol and 1.43 ± 0.091 kcal/mol.
Taken in the same sequence, the figures for “SAGGLKELLEALKEGNLEEALEALKKLGIEEVKIEIKPVVRVVITVEVPKEKVKVKVEVRVFLPEEELSAGG [r13_359_TrROS_Hall]” were 1.71 ± 0.33 kcal/mol, 1.24 ± 0.23 kcal/mol and 1.94 ± 0.13 kcal/mol.
The like results for “SAGGLKIDEFERSPNQGRYYVTIKIYHPDNGKPWDIEVPFNPDNGRWSAEEIAKTIAKKFKLPPGFTISAGG [r13_362_TrROS]” were, in that order, 2.05 ± 0.062 kcal/mol, 2.3 ± 0.08 kcal/mol and 1.814 ± 0.014 kcal/mol.
On to “SAGGLKPGDWVIIMTIEFPFPFPDDDGKPQEWRIKITIWVPVEYDPPDGKLEIDNIFINIEIVPPDQISAGG [r13_312_TrROS]”, for which the “folding stability dG unfold” value was 4.44 ± 0.18 kcal/mol in data set [1], 4.55 ± 0.1 kcal/mol in data set [2] and 3.52 ± 0.22 kcal/mol in data set [3].
With “SAGGLLEELGLEIEEVEVEVEEVEVGQTVRIRVKVKGEDGEEFEIELEIRLPPPPVEVEEEVEEEEESAGGS [r8_216_TrROS_Hall]”, the “folding stability dG unfold” value in data set [1] is 1.82 ± 0.14 kcal/mol; in data set [2] it was 1.83 ± 0.09 kcal/mol; in data set [3], 1.91 ± 0.2 kcal/mol.
Take “SAGGLLPLLKEIAEALGLPEIESLSFDPETGELTLRFRGPEPYLLRIPFRPVKDGGIPLDIEVYPTDLSAGG [r13_410_TrMRF]”: the “folding stability dG unfold” value in data set [1] amounted to 3.02 ± 0.056 kcal/mol; in data set [2] it was 3.006 ± 0.03 kcal/mol; in data set [3], 2.86 ± 0.06 kcal/mol.
The like results for “SAGGLPEEVEKLAEILAKLPPVVPVPVTFPDGVEVVYFPPTGFVAVRFYERDENGEWVLVGETFFPVSAGGS [r16_243_TrMRF]” were, in that order, 2.98 ± 0.05 kcal/mol, 3.235 ± 0.016 kcal/mol and 2.44 ± 0.042 kcal/mol.
Taken in the same sequence, the figures for “SAGGLSGEAKLVEAEFEPETGTVRVFAEAGDELLTFEFKGTPFLPPIPASISPESLEKDEPVIRVSGSAGGS [r16_809_TrMRF]” were 0.422 ± 0.079 kcal/mol, 0.143 ± 0.14 kcal/mol and 0.597 ± 0.059 kcal/mol.
Take “SAGGLSLEELADELAQENGWEITEAEPIEFTPNTIRFEVTVRMPDGKRRTIEIEIEIPPPKPPDQPKSAGGS [r8_309_TrROS]”: the “folding stability dG unfold” value in data set [1] came to 1.39 ± 0.13 kcal/mol; in data set [2] it was 1.63 ± 0.058 kcal/mol; in data set [3] it was 1.15 ± 0.067 kcal/mol.
Regarding “SAGGLTPEQWREIAKNFANELAKEYQERGPNVKIDVEVDPEEGYFKIKVENNDENMPRTITIPWDDIRSAGG [r13_354_TrROS]”, the “folding stability dG unfold” value in data set [1] worked out at 1.1 ± 0.079 kcal/mol; in data set [2] it was 1.35 ± 0.066 kcal/mol; in data set [3] it was 0.701 ± 0.046 kcal/mol.
On to “SAGGLYKKDPDGQYVKPVPKVPPIPIEIKFPNGVEVKIEIYPYSNHITIEYTGPNPELANELIQEIIQSAGG [r13_701_TrROS]”, for which the entries for the “folding stability dG unfold” value in data set [1], in data set [2] and in data set [3] were 0.702 ± 0.19 kcal/mol, 0.624 ± 0.2 kcal/mol and 0.425 ± 0.091 kcal/mol, respectively.
As to “SAGGMANPEDFKVVESLEFRDPDNGKPFTIEIAKPPDNNVPIMIWHNGSMYMFVIDGDKIEVFPIKNSAGGS [r16_711_TrROS]”, the “folding stability dG unfold” value in data set [1] turned out to be 1.75 ± 0.091 kcal/mol; in data set [2] it was 1.88 ± 0.1 kcal/mol; in data set [3], 1.5 ± 0.04 kcal/mol.
Taken in the same sequence, the figures for “SAGGMEIKEVKYDPEEGYLYIVVAAPPSVSPSEVVPAVVRAARELTGAEVEVEVDPETGYVVAKVPVSAGGS [r8_314_TrMRF]” were 1.77 ± 0.089 kcal/mol, 1.92 ± 0.043 kcal/mol and 1.43 ± 0.026 kcal/mol.
In the case of “SAGGMEIKIENIEINPDKKTIQYNFEIYHDGQPFKMDISIEVDPKNGLYKITVTYPDFPGVKHTLYIPSAGG [r13_615_TrROS]”, the “folding stability dG unfold” value in data set [1] came out at 5.35 ± 0.54 kcal/mol; in data set [2] it was 5.27 ± 0.15 kcal/mol; in data set [3] it was 3.38 ± 0.23 kcal/mol.
Taken in the same sequence, the figures for “SAGGMESSVTTTPDPNSDTTTTTTTVPLPDETTTTTTTTTTAPGTVTTTTTTYPPGGTPTTTTSTTASAGGS [r16_733_JUSTAS]” were 1.92 ± 0.12 kcal/mol, 1.61 ± 0.052 kcal/mol and 2.38 ± 0.17 kcal/mol.
The like results for “SAGGMESTSIPLEFKFEGDEEKAKKKVEEEAKKIAEEKGIEIKIEVKFDPNKPTATVTILVKGKEVEESAGG [r13_845_JUSTAS]” were, in that order, -0.285 ± 0.22 kcal/mol, -0.281 ± 0.25 kcal/mol and -0.411 ± 0.058 kcal/mol.
Taken in the same sequence, the figures for “SAGGMEVEITIVVPPGASLEEIEELARKLAEELGLSVENIKVTVIVVEPEEEEEEEEEKKLKEEEEKSAGGS [r16_240_TrROS_Hall]” were 2.57 ± 0.55 kcal/mol, 3.04 ± 0.56 kcal/mol and 1.93 ± 0.17 kcal/mol.
For the sequence “SAGGMHLVIPFDSPEEALEAAKELKKEFEEKGYTVKVYYFPETGDIHVLVEMKTDGKTKYLNVTVPFPSAGG [r13_641_TrMRF]”, the “folding stability dG unfold” value stood at 1.73 ± 0.057 kcal/mol in data set [1], 2.05 ± 0.036 kcal/mol in data set [2] and 0.83 ± 0.034 kcal/mol in data set [3].
“SAGGMIAPDEKVLVKVTLSEGTTSRELEFEFEVPPGATEEELKQRVIDEIPEEPRKNWKVEVEIKPVSAGGS [r16_321_JUSTAS]”: the “folding stability dG unfold” value in data set [1] turned out to be 0.596 ± 0.21 kcal/mol; in data set [2], 0.198 ± 0.24 kcal/mol; in data set [3], 0.918 ± 0.056 kcal/mol.
With “SAGGMIEKIKEAAKKLGLKVKIEEVKFDKKTKKVTIKITLENGKKIEITVEMSEEELLNAIKELIKKSAGGS [r16_153_TrROS_Hall]”, the results for the “folding stability dG unfold” value in data set [1], in data set [2] and in data set [3] were 3.34 ± 0.14 kcal/mol, 3.62 ± 0.091 kcal/mol and 2.52 ± 0.11 kcal/mol, respectively.
The like results for “SAGGMIEVFVEGLTLEETLRRLAEEYPDVPEVVVFFPDGTAVFFRRDGDEVEVVEVVPVGPVAPDELSAGGS [r8_225_TrMRF]” were, in that order, 2.93 ± 0.061 kcal/mol, 3.118 ± 0.017 kcal/mol and 2.59 ± 0.068 kcal/mol.
Take “SAGGMIIIEGMSEEEIKNLIKEAIKKGEKVKKIVIRVNGKLYLITVDAKTKKITVEEIPLEELKKKKSAGGS [r16_481_TrROS_Hall]”: the “folding stability dG unfold” value was 1.4 ± 0.21 kcal/mol in data set [1], 1.85 ± 0.067 kcal/mol in data set [2] and 0.692 ± 0.095 kcal/mol in data set [3].
With “SAGGMIPEELIRKLFEDGKPVPLEQIVELIEKLTGRPVRLEEGEDKFRIVVLDPDTPELLDEIEIDFSAGGS [r8_105_TrMRF]”, the results for the “folding stability dG unfold” value in data set [1], in data set [2] and in data set [3] were 1.55 ± 0.091 kcal/mol, 1.57 ± 0.028 kcal/mol and 1.43 ± 0.086 kcal/mol, respectively.
On to “SAGGMIQIERDKDGYLRITIWVPGDPKEAEEIAENIIELLQDLGFDEVDIDYEPFDGGVMIEITVKVSAGGS [r8_113_TrROS]”, for which the “folding stability dG unfold” value in data set [1] turned out to be 3.29 ± 0.077 kcal/mol; in data set [2] it was 3.49 ± 0.083 kcal/mol; in data set [3] it was 2.9 ± 0.12 kcal/mol.
Taken in the same sequence, the figures for “SAGGMIRIERDGDRLTIQIPMPPGQPPTPEQVEEFARDILKKLGPDVRVKDVSHDPNGGFTIELKVPSAGGS [r8_103_TrROS]” were 1.81 ± 0.069 kcal/mol, 2.15 ± 0.051 kcal/mol and 1.48 ± 0.028 kcal/mol.
Take “SAGGMIRITEGPNYYKITFWMPPNNPSLLEEIADFFGNPKVDTEPIPEDGMTRHEITLPLDDPEAIKSAGGS [r16_479_TrROS]”: the “folding stability dG unfold” value turned out to be 1.19 ± 0.27 kcal/mol in data set [1], 1.37 ± 0.23 kcal/mol in data set [2] and 0.765 ± 0.11 kcal/mol in data set [3].
Turning to “SAGGMISEEDIEAAAKAIVEAAKNGDPERIEEEYARLEEALEEAEKEGDPERRGRLAKAVEAAKKLLGSAGG [r13_137_TrMRF]”, the “folding stability dG unfold” value turned out to be 1.64 ± 0.12 kcal/mol in data set [1], 1.75 ± 0.043 kcal/mol in data set [2] and 1.43 ± 0.02 kcal/mol in data set [3].
Taken in the same sequence, the figures for “SAGGMISKKLNPPSKEEAEKIAEEIKKKNPNYKVTMTYDPKTGTYTITITPLPKPPPDPKNFKEIIKSAGGS [r16_674_JUSTAS]” were 1.48 ± 0.21 kcal/mol, 1.74 ± 0.15 kcal/mol and 1.23 ± 0.12 kcal/mol.
As for “SAGGMITEKVEKIDDGEIIKLTANLSDPSPVVAWLKATGKNVKLVEIKPTTDPETGNTTVNATFLLPSAGGS [r16_699_JUSTAS]”, the entries for the “folding stability dG unfold” value in data set [1], in data set [2] and in data set [3] were 0.0229 ± 0.22 kcal/mol, -0.234 ± 0.41 kcal/mol and 0.109 ± 0.25 kcal/mol, respectively.
As to “SAGGMITLTLPIPAEFLEKHGLDEAKKIVLEKAKEELKKLGLSEKYPIKKIEITPEPESLTATIVILSAGGS [r16_368_JUSTAS]”, the “folding stability dG unfold” value in data set [1] stood at 2 ± 0.04 kcal/mol; in data set [2], 1.95 ± 0.026 kcal/mol; in data set [3], 2 ± 0.036 kcal/mol.

These data come from the supplement of paper PMC12764529.
